Results from patent US20230365658A1.
Where “and” joins values, the source holds several entries; their conditions need not be identical. Identical values can stand only once.

Assays:
[1] = biological target: COV2-RBD (rpk9) B.1.1.529 R346K (BA.1.1) (SARS-CoV-2)
[2] = biological target: SARS-CoV-2 spike (S) glycoprotein, D614G (SARS-CoV-2) (UniProt P0DTC2); experiment: cell-based or functional assay

Substance	EC50 [1]	normalized pseudoneutralization IC50 [2] [µg/mL]
COV2-2130 (antibody)	4.13 µg/mL and 3.54 µg/mL	
rS2K146 (antibody)		0.00656
